The nature of data set [1]: Detection of β-diketone hydrolyzing activity (acetone from 2,4-pentanedione by gas chromatography). The format is biochemical. More on the design: key: Yes: Acetone, a product by the hydrolysis, was qualitatively detected. The note with it: qualitative. The source says: As shown in the above (2), the PVA-degrading enzyme of the present invention has an activity of hydrolyzing […]-diketone, i.e., […]-diketone-hydrolyzing activity. Enzymes having β-diketone-hydrolyzing activity can hydrolyze an oxidized PVA having a […]-diketone structure (i.e., oxidized PVA). Beta-diketone-hydrolyzing activity can be detected by examining the activity of hydrolyzing 2, 4-pentanedione which is a model compound of oxidized PVA having a […]-diketone structure. Acetone and acetic acid are formed when a PVA-degrading enzyme hydrolyzes 2,4-pentanedione. Therefore, for example, […]-diketone-hydrolyzing activity can be detected by the following method using 2,4-pentanedione as a substrate.
2,4-Pentanedione (Reagent grade, commercialized by Wako Pure Chemical Industries Co., Ltd., Osaka, Japan) was added to 50 mM sodium phosphate buffer (pH 7.0) to give a concentration of 0.2% (w/v) to make into a substrate solution. To 1 mL of the substrate solution, 0.2 mL of enzyme solution and 0.8 mL of 50 mM sodium phosphate buffer (pH 7.0) were added and then the mixture was shaken at 27° C. for 3 hours for the reaction. After the reaction, 2 mL of the reaction mixture was withdrawn and put in a glass vial, and then the vial was sealed and heated at 95° C. for 40 min. […]

The nature of data set [2]: Gel filtration HPLC of PVA degradation products (molecular weight). It is filed as biochemical. The note with it: 10 units of the enzyme on 1% (w/v) PVA for 20 hours; substrate PVA Mw about 10.6×10^4. The procedure: While, the molecular weight of the degraded product of PVA was analyzed by conventional gel filtration HPLC for a reaction mixture obtained by allowing 10 units of the enzyme to act on 1% (w/v) PVA solution for 20 hours. Gel filtration HPLC was carried out using the following conditions: • Column: “TSKgel […]-4000” (manufactured by Tosoh Corporation, Tokyo, Japan) • (Two columns were tandemly connected.); • Eluent: 50 mM phosphate buffer eluent (pH7.0); • Column temperature: 40° C.; • Flow rate: 0.5 mL/min; • Detector: “RID-20A”, a differential refractometer, manufactured by Shimadzu Corporation, Kyoto, Japan.
The molecular weights of PVA and the degradation products of PVA were respectively calculated based on a calibration curve of molecular weights prepared by subjecting pullulan standards for molecular weight measurement, commercialized by Hayashibara Co., Ltd., Okayama, Japan, to gel filtration HPLC in the same manner. The gel filtration HPLC chromatogram of the reaction mixture (symbol “b” in FIG. 11) is shown in FIG. 11 in comparison with that of PVA used as a substrate (symbol “a” in FIG. 11).
On the technique in general: Size exclusion chromatography separates by hydrodynamic size, large species first.

B1: PVA-A: purified PVA-degrading hybrid enzyme from Pseudomonas sp. VT1B strain, amino acid sequence of SEQ ID NO: 2 (protein, listed as Pseudomonas sp.)
chain: AENWPMFGKNYENTRATSDTQISTANISTLNVVRRTTDGGITGTPTVVDGVAYYSDFSGYVKAVRVSDGVVLWRVRPQTTMLSPSPFVTADTVYVAGNNSYVYALNRANGAVRWTTQIETSPNSRISSSPIVVGNILIIGTGSYQVFLPATPMFRGRVAFLNATTGAILPYSTNMCPSASCGGGISVWSTAAIDESTRTGYIGTGQAYRDPAGPYSDALVAFNIDTGAIRWARQFLANDVYQLGGTLRYDYDVGAAPNLFVANGQRMVGVGGKDGTYRAFNRDTGAPIWNTPVGRGSAIGGVMQSTAYGDGRIYVTSNTSTIGSGRNDPVPATAEASALDAATGAPVWIRQLDAGGFGGVAYANGLMYASTWDGRLRVFNAANGNIVREVQVSPSRGAYVPAPTDGFPNGSAGGPVVYGNRVLMGYGWTWVLNINGGLTTMEATVGGGASQTVTLASSSDTYVQSGTPTTNYAYDVNLLARLADAEGLTRASFLQFPLTAVPAGTITSARLRLYGRHDAPTGTGQSVSVWPGTKTTTWSGPNVTYNNSSTETGVDFYATSSIATATVGITPQYYEWNVTDYVASRRSLGHATFGVAVNSAHQYRVTLNSADNTANRPELVVTVSGGTGSQLPGSCPSGFTARAGVNQGFMHNGVARGFVLNVPANVSTPRPVFVSLTGSVESTNENLGARGGAGALNNDGFLVIGPVRRCAGQDPNGAGTSVNGGTCNQAGTGGWNWNPWNEGRVFAAAGDPWKTAEGPDSQFLEAVVRCVAASYPVDSTRMYLGGISSGATMTHRALLFNSDFWAGGLPLSGEWYVSQDNGTAYPGADEFAARRQAVINNPTKIFQGRVGPLPLPATQSPMIVISMWGGANDIWYCGSTLCADYRPSTQAASNYFSALPNVVHVACSSSHGHQWPTQNRAAFNTWAATTLASHPKGTPASSFVLPPPPAGYSCRVGRYTDHYSGT
B1: the “2,4-Pentanedione-Degrading Activity” value in data set [1] is “Yes*”. Moreover, the “weight average molecular weight (Mw) of the degraded products of PVA” value in data set [2] is “about 4,400”.
